Measurements as given in patent US20090011997A1 (THERATECHNOLOGIES, published 2009).
Bridge positions count the residues as written; N and C are the ends. Square brackets hold non-standard residues; d marks the D form. Ends that are not written are not given here. Nle = CCCC[C@H](N)C(=O)O

Columns and labels:
ANP receptor (on ANP …) = molecular target: ANP receptor (on ANP receptor-expressing LLC-PK1 cells); test: cell-based or functional assay
[1] = molecular target: MCR1 receptor (on MCR1 receptor-expressing B16-F1 cells) (UniProt Q01727 1-315); test: cell-based or functional assay
MCR1 receptor (on MCR1 receptor-expressing B16-F1 cells), sequence (Q01727 whole entry): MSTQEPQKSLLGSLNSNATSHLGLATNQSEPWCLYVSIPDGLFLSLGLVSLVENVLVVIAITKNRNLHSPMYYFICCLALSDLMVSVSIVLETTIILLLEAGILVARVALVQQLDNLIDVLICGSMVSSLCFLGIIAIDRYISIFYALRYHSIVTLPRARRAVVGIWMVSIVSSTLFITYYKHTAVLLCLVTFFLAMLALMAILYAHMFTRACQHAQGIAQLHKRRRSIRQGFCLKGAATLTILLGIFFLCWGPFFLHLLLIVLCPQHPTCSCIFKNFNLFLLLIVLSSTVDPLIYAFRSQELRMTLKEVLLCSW

Row | EC50 on the production of cGMP (LLC-PK1 cells) (ANP receptor (on ANP …)) [nM] | EC50 on the production of cAMP (BC16-F1 cells) [1] [nM] | Binder
1 | 69 | 10.4 | Ac-H[dF]RWGKPMCFGGRMDRIGAQSGLGCNSFRY-NH2 (disulfide 9-25; SMILES CC[C@H](C)[C@@H]1NC(=O)[C@H](CCCNC(=N)N)NC(=O)[C@H](CC(=O)O)NC(=O)[C@H](CCSC)NC(=O)[C@H](CCCNC(=N)N)NC(=O)CNC(=O)CNC(=O)[C@H](Cc2ccccc2)NC(=O)[C@@H](NC(=O)[C@H](CCSC)NC(=O)[C@@H]2CCCN2C(=O)[C@H](CCCCN)NC(=O)CNC(=O)[C@H](Cc2c[nH]c3ccccc23)NC(=O)[C@H](CCCNC(=N)N)NC(=O)[C@@H](Cc2ccccc2)NC(=O)[C@H](Cc2c[nH]cn2)NC(C)=O)CSSC[C@@H](C(=O)N[C@@H](CC(N)=O)C(=O)N[C@@H](CO)C(=O)N[C@@H](Cc2ccccc2)C(=O)N[C@@H](CCCNC(=N)N)C(=O)N[C@@H](Cc2ccc(O)cc2)C(N)=O)NC(=O)CNC(=O)[C@H](CC(C)C)NC(=O)CNC(=O)[C@H](CO)NC(=O)[C@H](CCC(N)=O)NC(=O)[C@H](C)NC(=O)CNC1=O) [bifunctional hormone of SEQ ID NO: 33]
2 | 132 | 62.5 | Ac-H[dF]RWGKP[Nle]CHFGGR[Nle]DRISCYR-NH2 (disulfide 9-20; SMILES CCCC[C@@H]1NC(=O)[C@H](CCCNC(=N)N)NC(=O)CNC(=O)CNC(=O)[C@H](Cc2ccccc2)NC(=O)[C@H](Cc2c[nH]cn2)NC(=O)[C@@H](NC(=O)[C@H](CCCC)NC(=O)[C@@H]2CCCN2C(=O)[C@H](CCCCN)NC(=O)CNC(=O)[C@H](Cc2c[nH]c3ccccc23)NC(=O)[C@H](CCCNC(=N)N)NC(=O)[C@@H](Cc2ccccc2)NC(=O)[C@H](Cc2c[nH]cn2)NC(C)=O)CSSC[C@@H](C(=O)N[C@@H](Cc2ccc(O)cc2)C(=O)N[C@@H](CCCNC(=N)N)C(N)=O)NC(=O)[C@H](CO)NC(=O)[C@H]([C@@H](C)CC)NC(=O)[C@H](CCCNC(=N)N)NC(=O)[C@H](CC(=O)O)NC1=O) [bifunctional hormone of SEQ ID NO: 34]
3 | 216 | 31.4 | Ac-H[dF]RWGKP[Nle]CFGGR[Nle]DRIGAQSGLGCNSFRY-NH2 (disulfide 9-25; SMILES CCCC[C@@H]1NC(=O)[C@H](CCCNC(=N)N)NC(=O)CNC(=O)CNC(=O)[C@H](Cc2ccccc2)NC(=O)[C@@H](NC(=O)[C@H](CCCC)NC(=O)[C@@H]2CCCN2C(=O)[C@H](CCCCN)NC(=O)CNC(=O)[C@H](Cc2c[nH]c3ccccc23)NC(=O)[C@H](CCCNC(=N)N)NC(=O)[C@@H](Cc2ccccc2)NC(=O)[C@H](Cc2c[nH]cn2)NC(C)=O)CSSC[C@@H](C(=O)N[C@@H](CC(N)=O)C(=O)N[C@@H](CO)C(=O)N[C@@H](Cc2ccccc2)C(=O)N[C@@H](CCCNC(=N)N)C(=O)N[C@@H](Cc2ccc(O)cc2)C(N)=O)NC(=O)CNC(=O)[C@H](CC(C)C)NC(=O)CNC(=O)[C@H](CO)NC(=O)[C@H](CCC(N)=O)NC(=O)[C@H](C)NC(=O)CNC(=O)[C@H]([C@@H](C)CC)NC(=O)[C@H](CCCNC(=N)N)NC(=O)[C@H](CC(=O)O)NC1=O) [bifunctional hormone of SEQ ID NO: 35]
4 | 33.1 | 49.1 | MEHFRWGRRSSCFGGRMDRIGAQSGLGCNSFRY-NH2 (disulfide 12-28; N-terminus assumed; SMILES CC[C@H](C)[C@@H]1NC(=O)[C@H](CCCNC(=N)N)NC(=O)[C@H](CC(=O)O)NC(=O)[C@H](CCSC)NC(=O)[C@H](CCCNC(=N)N)NC(=O)CNC(=O)CNC(=O)[C@H](Cc2ccccc2)NC(=O)[C@@H](NC(=O)[C@H](CO)NC(=O)[C@H](CO)NC(=O)[C@H](CCCNC(=N)N)NC(=O)[C@H](CCCNC(=N)N)NC(=O)CNC(=O)[C@H](Cc2c[nH]c3ccccc23)NC(=O)[C@H](CCCNC(=N)N)NC(=O)[C@H](Cc2ccccc2)NC(=O)[C@H](Cc2c[nH]cn2)NC(=O)[C@H](CCC(=O)O)NC(=O)[C@@H](N)CCSC)CSSC[C@@H](C(=O)N[C@@H](CC(N)=O)C(=O)N[C@@H](CO)C(=O)N[C@@H](Cc2ccccc2)C(=O)N[C@@H](CCCNC(=N)N)C(=O)N[C@@H](Cc2ccc(O)cc2)C(N)=O)NC(=O)CNC(=O)[C@H](CC(C)C)NC(=O)CNC(=O)[C@H](CO)NC(=O)[C@H](CCC(N)=O)NC(=O)[C@H](C)NC(=O)CNC1=O) [bifunctional hormone of SEQ ID NO: 36]
5 | 6.9 | 259 | Ac-HFRWGRRSSCFGGRMDRIGAQSGLGCNSFRY-NH2 (disulfide 10-26; SMILES CC[C@H](C)[C@@H]1NC(=O)[C@H](CCCNC(=N)N)NC(=O)[C@H](CC(=O)O)NC(=O)[C@H](CCSC)NC(=O)[C@H](CCCNC(=N)N)NC(=O)CNC(=O)CNC(=O)[C@H](Cc2ccccc2)NC(=O)[C@@H](NC(=O)[C@H](CO)NC(=O)[C@H](CO)NC(=O)[C@H](CCCNC(=N)N)NC(=O)[C@H](CCCNC(=N)N)NC(=O)CNC(=O)[C@H](Cc2c[nH]c3ccccc23)NC(=O)[C@H](CCCNC(=N)N)NC(=O)[C@H](Cc2ccccc2)NC(=O)[C@H](Cc2c[nH]cn2)NC(C)=O)CSSC[C@@H](C(=O)N[C@@H](CC(N)=O)C(=O)N[C@@H](CO)C(=O)N[C@@H](Cc2ccccc2)C(=O)N[C@@H](CCCNC(=N)N)C(=O)N[C@@H](Cc2ccc(O)cc2)C(N)=O)NC(=O)CNC(=O)[C@H](CC(C)C)NC(=O)CNC(=O)[C@H](CO)NC(=O)[C@H](CCC(N)=O)NC(=O)[C@H](C)NC(=O)CNC1=O) [bifunctional hormone of SEQ ID NO: 38]
6 | 52.1 | 11.5 | Ac-H[dF]RWGRRSSCFGGRMDRIGAQSGLGCNSFRY-NH2 (disulfide 10-26; SMILES CC[C@H](C)[C@@H]1NC(=O)[C@H](CCCNC(=N)N)NC(=O)[C@H](CC(=O)O)NC(=O)[C@H](CCSC)NC(=O)[C@H](CCCNC(=N)N)NC(=O)CNC(=O)CNC(=O)[C@H](Cc2ccccc2)NC(=O)[C@@H](NC(=O)[C@H](CO)NC(=O)[C@H](CO)NC(=O)[C@H](CCCNC(=N)N)NC(=O)[C@H](CCCNC(=N)N)NC(=O)CNC(=O)[C@H](Cc2c[nH]c3ccccc23)NC(=O)[C@H](CCCNC(=N)N)NC(=O)[C@@H](Cc2ccccc2)NC(=O)[C@H](Cc2c[nH]cn2)NC(C)=O)CSSC[C@@H](C(=O)N[C@@H](CC(N)=O)C(=O)N[C@@H](CO)C(=O)N[C@@H](Cc2ccccc2)C(=O)N[C@@H](CCCNC(=N)N)C(=O)N[C@@H](Cc2ccc(O)cc2)C(N)=O)NC(=O)CNC(=O)[C@H](CC(C)C)NC(=O)CNC(=O)[C@H](CO)NC(=O)[C@H](CCC(N)=O)NC(=O)[C@H](C)NC(=O)CNC1=O) [bifunctional hormone of SEQ ID NO: 39]
7 | 7000 | 9.8 | SLRRSSCFGGRMDRIGAQSGLGCNSFRYHXRW (disulfide bridge between C residues at positions 7 and 23; D-Phe (f) at position 30; C-terminal amidation (NH2)) [bifunctional hormone of SEQ ID NO: 40]
8 | 502 | 6 | Ac-EH[dF]RWGRRSSCFGGRMDRIGAQSGLGCNSFRY-NH2 (disulfide 11-27; SMILES CC[C@H](C)[C@@H]1NC(=O)[C@H](CCCNC(=N)N)NC(=O)[C@H](CC(=O)O)NC(=O)[C@H](CCSC)NC(=O)[C@H](CCCNC(=N)N)NC(=O)CNC(=O)CNC(=O)[C@H](Cc2ccccc2)NC(=O)[C@@H](NC(=O)[C@H](CO)NC(=O)[C@H](CO)NC(=O)[C@H](CCCNC(=N)N)NC(=O)[C@H](CCCNC(=N)N)NC(=O)CNC(=O)[C@H](Cc2c[nH]c3ccccc23)NC(=O)[C@H](CCCNC(=N)N)NC(=O)[C@@H](Cc2ccccc2)NC(=O)[C@H](Cc2c[nH]cn2)NC(=O)[C@H](CCC(=O)O)NC(C)=O)CSSC[C@@H](C(=O)N[C@@H](CC(N)=O)C(=O)N[C@@H](CO)C(=O)N[C@@H](Cc2ccccc2)C(=O)N[C@@H](CCCNC(=N)N)C(=O)N[C@@H](Cc2ccc(O)cc2)C(N)=O)NC(=O)CNC(=O)[C@H](CC(C)C)NC(=O)CNC(=O)[C@H](CO)NC(=O)[C@H](CCC(N)=O)NC(=O)[C@H](C)NC(=O)CNC1=O) [bifunctional hormone of SEQ ID NO: 42]
9 | 74.3 | 20.9 | Ac-H[dF]RWGKPMCHFGGRMDRISCYR-NH2 (disulfide 9-20; SMILES CC[C@H](C)[C@@H]1NC(=O)[C@H](CCCNC(=N)N)NC(=O)[C@H](CC(=O)O)NC(=O)[C@H](CCSC)NC(=O)[C@H](CCCNC(=N)N)NC(=O)CNC(=O)CNC(=O)[C@H](Cc2ccccc2)NC(=O)[C@H](Cc2c[nH]cn2)NC(=O)[C@@H](NC(=O)[C@H](CCSC)NC(=O)[C@@H]2CCCN2C(=O)[C@H](CCCCN)NC(=O)CNC(=O)[C@H](Cc2c[nH]c3ccccc23)NC(=O)[C@H](CCCNC(=N)N)NC(=O)[C@@H](Cc2ccccc2)NC(=O)[C@H](Cc2c[nH]cn2)NC(C)=O)CSSC[C@@H](C(=O)N[C@@H](Cc2ccc(O)cc2)C(=O)N[C@@H](CCCNC(=N)N)C(N)=O)NC(=O)[C@H](CO)NC1=O) [bifunctional hormone of SEQ ID NO: 31]
